According to US20200199241A1 (Chugai, published 2020):
Numbering of substitutions follows the chain as printed. In names and notes the source's numbering stands.

T1: FcγRIIb (human, UniProt P31994 43-217, limits assumed)
T1 construct: also called FcgRIIb; FcγIIB
T1 sequence: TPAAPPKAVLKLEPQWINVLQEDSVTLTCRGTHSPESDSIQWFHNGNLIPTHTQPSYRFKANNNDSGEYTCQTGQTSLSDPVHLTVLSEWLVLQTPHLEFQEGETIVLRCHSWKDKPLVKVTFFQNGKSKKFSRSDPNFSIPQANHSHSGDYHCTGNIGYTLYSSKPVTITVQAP

T2: FcγRIIa type H (human, UniProt P12318 36-217)
T2 construct: also called FcγRIIaH; FcγRIIH
T2 sequence: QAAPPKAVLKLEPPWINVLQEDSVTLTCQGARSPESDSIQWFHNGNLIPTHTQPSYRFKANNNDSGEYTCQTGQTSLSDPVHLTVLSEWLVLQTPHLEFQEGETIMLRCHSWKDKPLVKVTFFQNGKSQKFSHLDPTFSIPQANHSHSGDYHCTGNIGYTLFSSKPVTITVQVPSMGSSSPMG

T3: human FcγRIIa(R) (human, UniProt P12318 36-217)
T3 construct: also called FcgRIIaR; hFcgRIIa(R)
T3 chain: T2 sequence with H133R

T4: human FcγRIIb (human, UniProt P31994 43-217, limits assumed)
T4 construct: also called FcgRIIb; hFcgRIIb
T4 sequence: T1 sequence

T5: human FcγRIIa(H) (human, UniProt P12318 36-217)
T5 construct: also called FcgRIIaH; hFcgRIIa(H)
T5 sequence: T2 sequence

B1: IL6R-BP130/IL6R-L (antibody, human IgG1)
heavy: QVQLQESGPGLVKPSETLSLTCAVSGHSISHDHAWSWVRQPPGEGLEWIGFISYSGITNYNPSLQGRVTISRDNSKNTLYLQMNSLRAEDTAVYYCARSLARTTAMDYWGEGTLVTVSSASTKGPSVFPLAPSSKSTSGGTAALGCLVKDYFPEPVTVSWNSGALTSGVHTFPAVLQSSGLYSLSSVVTVPSSSLGTQTYICNVNHKPSNTKVDKKVEPKSCDKTHTCPPCPAPDLLGGDSVFLFPPKPKDTLMISRTPEVTCVVVDVSHEDPEVKFNWYVDGVEVHNAKTKPREEQYNSTYRVVSVLTVLHQDWLNGKEYKCKMSNKALPKPIEKTISKAKGQPREPQVYTLPPSRDELTKNQVSLTCLVKGFYPSDIAVEWESNGQPENNYKTTPPVLDSDGSFFLYSKLTVDKSRWQQGNVFSCSVMHEALHNHYTQESLSLSP
light: DIQMTQSPSSLSASVGDRVTITCRASQDISSYLNWYQQKPGKAPKLLIYYTSRLHSGVPSRFSGSGSGTDFTFTISSLQPEDIATYYCQQGNTLPYTFGQGTKVEIK
notes: IgG1; Fc variant of IL6R-B3; copies: 2 + 2
B2: IL6R-BP201/IL6R-L (antibody, human IgG1)
heavy: B1 heavy with G239D, P273G, M325V, K332R
light: B1 light
notes: as for B1
B3: IL6R-BP176/IL6R-L (antibody, human IgG1)
heavy: B1 heavy with M325V, K328D
light: B1 light
notes: as for B1
B4: IL6R-BP202/IL6R-L (antibody, human IgG1)
heavy: B1 heavy with D235E, G239D, P273G, M325V, K328A, K332R
light: B1 light
notes: as for B1
B5: IL6R-BP178/IL6R-L (antibody, human IgG1)
heavy: B1 heavy with G239D, P273G, M325V
light: B1 light
notes: as for B1
B6: IL6R-BP152/IL6R-L (antibody, human IgG1)
heavy: B1 heavy with L236Y, G239D, Y298D, M325V, K328A, K332R
light: B1 light
notes: as for B1
B7: IL6R-BP188/IL6R-L (antibody, human IgG1)
heavy: B1 heavy with G239D, H270D, P273G, M325V
light: B1 light
notes: as for B1
B8: IL6R-BP193/IL6R-L (antibody, human IgG1)
heavy: B1 heavy with H270D, P273G, M325V
light: B1 light
notes: as for B1
B9: IL6R-BP146/IL6R-L (antibody, human IgG1)
heavy: B1 heavy with D235E, L236Y, G239D, M325V, K328A, K332A
light: B1 light
notes: as for B1
B10: IL6R-BP204/IL6R-L (antibody, human IgG1)
heavy: B1 heavy with P273G, M325V, K328A, K332R
light: B1 light
notes: as for B1
B11: GpH7-B3 Y300P/GpL16-k0 (antibody, human IgG1)
heavy: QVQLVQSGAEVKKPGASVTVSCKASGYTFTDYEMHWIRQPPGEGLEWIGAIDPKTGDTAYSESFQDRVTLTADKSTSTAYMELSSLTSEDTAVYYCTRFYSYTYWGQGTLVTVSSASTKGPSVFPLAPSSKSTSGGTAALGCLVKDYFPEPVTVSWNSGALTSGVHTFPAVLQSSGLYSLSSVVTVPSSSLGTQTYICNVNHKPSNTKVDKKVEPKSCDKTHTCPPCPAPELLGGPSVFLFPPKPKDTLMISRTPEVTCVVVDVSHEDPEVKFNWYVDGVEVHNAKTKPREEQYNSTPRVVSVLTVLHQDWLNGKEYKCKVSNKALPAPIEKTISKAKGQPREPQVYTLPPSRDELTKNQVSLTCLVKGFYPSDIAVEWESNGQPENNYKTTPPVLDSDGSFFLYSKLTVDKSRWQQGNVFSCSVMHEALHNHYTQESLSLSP
light: DIVMTQSPLSLPVTPGEPASISCQASESLVHSNRNTYLHWYLQKPGQSPQLLIYKVSNRFSGVPDRFSGSGSGTDFTLKISRVEAEDVGVYYCSQNTHVPPTFGQGTKVEIE
notes: B3 variant; copies: 2 + 2
B12: GpH7-B3 Y300R/GpL16-k0 (antibody, human IgG1)
heavy: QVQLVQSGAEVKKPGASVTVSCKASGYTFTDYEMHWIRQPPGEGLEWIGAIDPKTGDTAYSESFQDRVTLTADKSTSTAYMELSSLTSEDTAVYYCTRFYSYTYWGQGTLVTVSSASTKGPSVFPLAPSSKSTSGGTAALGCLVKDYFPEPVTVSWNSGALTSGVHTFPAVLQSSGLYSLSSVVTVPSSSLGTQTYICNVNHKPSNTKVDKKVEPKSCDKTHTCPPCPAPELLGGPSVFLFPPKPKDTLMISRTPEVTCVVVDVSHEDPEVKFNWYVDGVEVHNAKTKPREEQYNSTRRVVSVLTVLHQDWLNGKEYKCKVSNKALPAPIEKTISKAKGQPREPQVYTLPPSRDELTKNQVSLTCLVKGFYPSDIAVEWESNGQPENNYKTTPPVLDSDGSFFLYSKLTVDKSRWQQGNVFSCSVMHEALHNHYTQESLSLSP
light: B11 light
notes: B3 variant; copies: 2 + 2

These binders were tested against T6, FcγRIa (human, UniProt P12314 16-292, limits assumed) (assay: SPR (Biacore), bound amount, IL6R-BF648/IL6R-L = 100).
T6 construct: also called FcgRIa; CD64
T6 sequence (P12314 16-292 limits assumed): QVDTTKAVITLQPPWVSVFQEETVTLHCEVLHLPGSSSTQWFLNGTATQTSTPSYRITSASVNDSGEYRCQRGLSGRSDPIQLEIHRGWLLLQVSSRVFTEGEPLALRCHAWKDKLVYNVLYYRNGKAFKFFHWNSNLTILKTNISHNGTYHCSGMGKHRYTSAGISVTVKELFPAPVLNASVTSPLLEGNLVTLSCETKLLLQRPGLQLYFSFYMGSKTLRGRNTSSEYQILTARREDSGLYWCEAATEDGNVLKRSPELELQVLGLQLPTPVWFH
Description: (§1) According to the following method, relative binding activities were calculated for the results of analyzing interactions with the respective FcγRs.

relative binding activity	Binder
104 % of control	B1
57 % of control	B2
102 % of control	B3
43 % of control	B4
51 % of control	B5
34 % of control	B6
74 % of control	B7
113 % of control	B8

What follows are binders tested against T1, FcγRIIb in the same assay as above.
Description: as §1

relative binding activity	Binder
186 % of control	B2
147 % of control	B3
185 % of control	B4
179 % of control	B5
156 % of control	B9
178 % of control	B6
179 % of control	B7
165 % of control	B10
173 % of control	B8

What follows are binders tested against T2, FcγRIIa type H in the same assay as above.
Description: as §1

relative binding activity	Binder
224 % of control	B1
359 % of control	B2
128 % of control	B3
285 % of control	B4
259 % of control	B5
203 % of control	B9
548 % of control	B6
137 % of control	B10
154 % of control	B8

Biological target: T3, human FcγRIIa(R)
Assay: SPR, captured antibody;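 further: antibody captured on a sensor chip, Fcγ receptor flowed over at 25 °C, receptor binding normalized to the captured antibody amount and expressed relative to the reference antibody ×100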
Description: (§2) Interaction between each modified antibody and Fcγ receptor prepared in the manner described above was analyzed using the BIACORE™ T100 surface plasmon resonance system (GE Healthcare), BIACORE™ T200 surface plasmon resonance system (GE Healthcare), BIACORE™ A100 surface plasmon resonance system or BIACORE™ 4000 surface plasmon resonance system. HBS-EP+ (GE Healthcare) was used for the running buffer, and measurements were carried out at 25° C. The chips used were chips in which antigen peptides, Protein A (Thermo Scientific), Protein A/G (Thermo Scientific) or Protein L (ACTIGEN® protein (Alltech or BioVision) were immobilized on the Series S Sensor Chip CMS (GE Healthcare) or Series S Sensor Chip CM4 (GE Healthcare) by amine coupling, or chips in which preliminarily biotinylated antigen peptides were allowed to interact and then immobilized on the Series S Sensor Chip SA (certified) (GE Healthcare). The target antibodies were captured on these sensor chips, Fcγ receptor diluted with the running buffer was allowed to interact, followed by measurement of the amount of bound antibody. The amounts bound were compared between antibodies. However, since the amount of Fcγ receptor bound depends on the amount of captured antibody, the values used for comparison were first corrected by dividing the amount of Fcγ receptor bound by the captured amount of each antibody. Through reaction with 10 mM glycine-HCl at pH 1.5, the sensor chips were regenerated by washing off antibody captured on the sensor chips and used repeatedly.
(§3) Binding strength was evaluated according to the following method based on the results of analyzing the interaction with each FcγR. […] That value was then further multiplied by 100, and the resulting value was used as an indicator of relative binding activity to each FcγR.

relative binding activity	Binder
-1 % of GpH7-B3/GpL16-k0	B11
38 % of GpH7-B3/GpL16-k0	B12

Each binder was assayed against T4, human FcγRIIb (assay: SPR, captured antibody;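 further: antibody captured on a sensor chip, Fcγ receptor flowed over at 25 °C, receptor binding normalized to the captured antibody amount and expressed relative to the reference antibody ×100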).
Description: as §2, §3

relative binding activity	Binder
-1 % of GpH7-B3/GpL16-k0	B11
25 % of GpH7-B3/GpL16-k0	B12

Each binder was assayed against T7, human FcγRIa (human, UniProt P12314 16-292, limits assumed) (assay: SPR, captured antibody;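 further: antibody captured on a sensor chip, Fcγ receptor flowed over at 25 °C, receptor binding normalized to the captured antibody amount and expressed relative to the reference antibody ×100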).
T7 construct: also called FcgRIa; hFcgRIa
T7 sequence (P12314 16-292 limits assumed): as above
Description: as §2, §3

relative binding activity	Binder
9 % of GpH7-B3/GpL16-k0	B11
91 % of GpH7-B3/GpL16-k0	B12

What follows are binders tested against T5, human FcγRIIa(H) (assay: SPR, captured antibody;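 further: antibody captured on a sensor chip, Fcγ receptor flowed over at 25 °C, receptor binding normalized to the captured antibody amount and expressed relative to the reference antibody ×100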).
Description: as §2, §3

relative binding activity	Binder
0 % of GpH7-B3/GpL16-k0	B11
34 % of GpH7-B3/GpL16-k0	B12
